{"source": "patent US20240207429A1", "about": "“LINKERS, DRUG LINKERS AND CONJUGATES THEREOF AND METHODS OF USING THE SAME” (ProfoundBio US Co., priority 2021, published 2024)", "molecules": {"B1": {"name": "F40: Anti-FOLR1 antibody clone: \"Clone F40 has a different HCDRs and LCDRs, and with different HFR and LFR\" (antibody, V domains shown)", "VH": "EVQLLESGGGVVQPGRSLRLSCAASGFTFSSYAMHWVRQAPGKGLEWVAVISYDGSNKYYADSVKGRFIISRDNSKNTVYLQMNSLRAEDTAVYYCARPTYVFTYTGSSFDYWGQGTQVTVSS", "VL": "DIQVTQSPSSLSASLGDTVSITCRASRGLTDSVAWYQQKPGQAPKLLIYAASTLQSGVPSRFGGSGSGSYFTLTITSLQPEDVATYYCQNYKSAPWTFGQGTKVEIK"}}, "test_system": "Hela cells", "test": "Flow cytometry binding to Hela cells", "format": "cell-based", "conditions": "transfection supernatants, FIG. 6", "experimental": "The binding activity of the antibodies to Hela cells (ATCC@ CCL-2, provided by COBIOER) and to RPTEC/TERT1 cells (ATCC@ CRL-4031, provided by COBIOER) was tested by flow cytometry using the transfection supernatants. Briefly, target cells were digested with 0.02% EDTA-2Na, centrifuged at 1500 rpm for 3 mins, and resuspended with PBS. After counting, the cells were added to a 1.5 ml centrifuge tube with 1×10^6 cells per tube, centrifuged at 1500 rpm for 5 minutes, and the supernatant was discarded. Then all the operations were carried out on an ice bath. 100 μL of transfection supernatant was added to each 1.5 ml centrifuge tube. Blank cells, blank cells plus secondary antibody, medium and HEK293 supernatant were set up as the controls. The reaction was performed on an ice bath for 1 hour. Then the cells were pelleted and washed twice with PBS. The secondary antibody, goat anti-Human IgG (PE, abcam, ab98596), was diluted (1:200) and added using 100 μL per tube. The reaction was performed on an ice bath for 1 hour in the dark. The cells were pelleted again and washed twice with PBS, resuspended in 300 μL PBS, and FL2 fluorescence readings were measured by cytometry. The results were analyzed by FlowJo™10 software.\nAnti-FOLR1 antibody binding to Hela and RPTEC/TERT1 cells was tested by FACS. The study was carried out as described above. […]"}
{"molecule": "B1", "values": [{"measurement": "Hela cell binding", "result": "weakly positive"}]}
